Molecular target: T1, human (h)TNF-α (human, UniProt P01375 77-233)
T1 construct: Bought purified protein; also called TNF-alpha; Tumor Necrosis Factor α
Assay: IAsys biosensor, dissociation in 10 mM HEPES/0.05% Tween
Method: The binding and dissociation of phage clone A1, amino acid sequence: RYWQDIP; Table 1, (SEQ ID NO: 3) to TNF-α was monitored using an lAsys AutoPlus Biosensor following the Labsystems Affinity Sensors lAsys Protocol 2.4 ‘Immobilization to Protein Layer: Thiol coupling to avidin’ (Thermo BioAnalysis Corp. Franklin, Mass.). Two cuvettes were first coated with avidin and one (the control) was then blocked with biotin. This was followed by activation of the lysine groups. A 15 μl aliquot of a 1 mg/ml (h)TNF-α solution was added to each cuvette. […] After blocking and washing, phage clone A1, RYWQDIP (SEQ ID NO: 3) was added to give a final titer of 5×10¹¹ pfu/ml.
The dissociation of the phage from the TNF-α is very slow with the dissociation constant estimated as koff<10⁻⁴ sec⁻¹ (10 mM HEPES/0.05% Tween). Washing with a 1×buffer concentrate (at the 70 min time point) only removed a small portion of the phage.

T1 sequence (P01375 77-233 limits assumed): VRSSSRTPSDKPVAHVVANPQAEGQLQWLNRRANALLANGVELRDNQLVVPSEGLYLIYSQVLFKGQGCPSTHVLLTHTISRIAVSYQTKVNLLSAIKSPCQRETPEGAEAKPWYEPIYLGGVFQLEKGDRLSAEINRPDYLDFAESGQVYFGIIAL

Row | Binder | koff
1 | RYWQDIP (also called T1; phage peptide clone A1) [phage clone A1, amino acid sequence RYWQDIP] | < 0.0001 s⁻¹

Molecular target: T1, human (h)TNF-α
Assay: phage display selection on hTNF-α-coated tube, PCR of phage still bound after acid wash
Method: A thin-walled PCR tube was coated with the target human (h)TNF-α (BioSource International; Camarillo, Calif.) by incubating 100 μl of 0.5 mg/ml purified TNF-α in PBS overnight at 4° C. in the PCR tube. Excess unbound TNF-α was removed, and the tube was coated overnight at 4° C. with 100 μl of SuperBlock™ blocking buffer (Pierce: Rockford, Ill.) in Tris buffered saline (TBS). The anti-target (SuperBlock™ blocking buffer) was prepared in separate PCR tubes coated overnight at 4° C. with 100 μl of SuperBlock™.
Unbound phage were removed by washing the tube 5 times with 150 μl PBS containing 0.1% Tween-20 at room temperature. Low affinity binders were washed away by incubating with 60 μl of 0.2 M Glycine (pH 2.2) for 6 minutes followed by neutralization with 9 μl M Tris-Cl (pH 9.1). The acid washed population was retained for further analysis. The tube was then washed again 3 times with 150 μl of PBS.
This was due to too much template (i.e. phage) in the PCR reaction, and can be alleviated by decreasing the phage concentration or by decreasing the number of PCR cycles (FIG. 3). To decrease the amount of the 500-700 bp diffuse band, the PCR product was diluted appropriately for subsequent PCR reactions from this starting material to generate more products for sub-cloning purposes.

Row | Binder | binding result
2 | TMLPYRP [T7 (TMLPYRP)] | binds
3 | GQTHFHV [T11 (GQTHFHV)] | binds
4 | QPLRKLP [T15 (QPLRKLP)] | binds
5 | LTQSFSS [T9 (LTQSFSS)] | binds
6 | LSQPIPI [T14 (LSQPIPI)] | binds
7 | LPILTQT [T12 (LPILTQT)] | binds
8 | ASTVGGL [T6 (ASTVGGL)] | binds
9 | AWHSPSV [T8 (AWHSPSV)] | binds
10 | ATFPNQS [T5 (ATFPNQS)] | binds
11 | APEPILA [T2 (APEPILA)] | binds
12 | SILPVSH [T13 (SILPVSH)] | binds
13 | THKNTLR [T10 (THKNTLR)] | binds
14 | DMIMVSI [T3 (DMIMVSI)] | binds
15 | WTPKPTQ [T4 (WTPKPTQ)] | binds

From patent US20020098524A1 (published 2002)
